These results are taken from the DeepSol protein solubility set.

A short description of the series: soluble on expression in E. coli; label from the status in PepcDB or PDB records.
As for “MSRFFHAKEDSDSDTSSSEDEVEDQKVNKSAKFRDDLDFMAGPEEDEKRVVRAQKDKKFDELKGIIKQNRDAKSNKDLNRLLTGFDSLAKAYDKSKTVFQRQNVANPRFYIRSLVEIEDYVNKLWDDKDAKSALSKNNAKALPPLRQKLKKYIKDQQLQDLVTDYRVNPDEDGYETPEDEDDDDFGEVSESKAEKSPGKPSEKAAVSDSDSDSDDDDSSNWSSEPESNSSDDEDSVTKMEQLRRYFLKKEFRVESKDDKKEKKKRVIRVKEAVEEDDDADWTPVNREKSVVHFDPKEEVTHDVMIKKLNEVMSARGKRTTDRNQHVANLRKLLEVSEEKELGLGINVKISFCIISALFELNAKISDHMEYETFMTTLQTVNSLLDLLIGTDRVKLSVTYAEEDENLKDDTQEYRIQGSILIAVQRLDGELAKILQNADCHSNDYIEKLKAEKDMCSLIEKAEKYVELRNDSGIFDKHEVCKVYMMRIEHAYYKYQDQNEEDAGKLMDYLCNKIYTLDDEKRLRQRAMLCHVYYLAVHDKWHRARDLLLMSHMQAIVDHSDVDTQILYNRTICQLGLCAFRHGFIREAHQGLSEIQNTQRAKELLAQAVGTRQHEKTAEQEKIDRSRQVPYHMHINVELMECVYLICSMLLEIPHMASCEFEMRRRMLSRSFHYQLKQSEKASLTGPPENTREHVVAASKAMLNGDWKKCQDYIVNDKMNQKVWNLFHNAETVKGMVVRRIQEESLRTYLLTYSTVYATVSLKKLADLFELSKKDVHSIISKMIIQEELSATLDEPTDCLIMHRVEPSRLQMLALNLSDKLQTLAENNEQILEPRTGRGGYQGPGSWFPGRNERQGDKQKGSGGYQGERRGGQGQDGKRGNWGSQGGQQRRHPQKPRAF”, the “soluble on expression in E. coli” value is on record as “not soluble”.

With “MRAFYSTTEEISALFAKQQEQLKTMQRTLEDEDNCDNTSLDIDLNPINRSPNRANTQGDKRATSHLNFAARASSSTSGQRSTRNEVVDTSCEDADATQKHDCEIMSQEGQNTQEAEYPSSDKVAKGGFGSDIEGIGTAPTSGTDPVGTEQVNETQSPGNDYERNDHLRKSIILAGDTMQIDCETQVHESVQIEGAVLLLRNPNDRRDTQDIEGVGTIGTSDLLASEVAGSWANSTNPSVHGENETERSREDEESQTQKIKEVTIVQDSAGQIGESQTKPTSPGVLVTNKDDAERGVINEPVGITDQGKIKHGTRSDSETESCSDSDDDHEKEKHNPVSDSDTEGSDMNDDKGSLSSDPDTERSHEVDGDQKKQVDTMDEDDKAT”, the “soluble on expression in E. coli” value was “soluble”.

Regarding “MGSDKIHHHHHHMVSEECSSFFYLHNSDFNMFGKKKNEDYSVKTVKVGVDKLTTIALGTMVKGTITVEGDLRLDGIIEGNVSCRGKVVIGPQGRIKGNVTCTGAVLHGMLQGDIQVAEDLIMKSGCTMNGDVYTCKLEIESKARFNGTCNTTEKDTLVTSQVVKPETVDTEK”, the “soluble on expression in E. coli” value is listed as “not soluble”.

For the sequence “MPSSGQLYGDEERELTPTPAIPEEGVYEVKYSNRRTNVVRLLPNGFQERKLRRLANLSAKLFNEVNFERRQQFFHEGKVNIEETYKKYYEKYKVILGVNAQAVLNKNNEAWSSFFSLLKLKKEGKLPPHMNHVSPPGYWKDREAGKRKQILVIRQDRYKVDAENHKLILKDFDMEIDFIGRLKWYGKQGRLEIIFDETRNAWYAHIPIEVGVEETKAGKKSKHVVKGERKSIQISKPKGNKVASIDLGINVIASVVVNDGTWLLYKGVRTKEDYFYFQKRIAEVQSLADRTRNIGEYDAYLELLREKRRLFKKLTRRLTHLYRNLASHLIETLYELGVSTIYLGYPFNIVQEKGNKFTVNMWSYRKLMESIELKAQEYGMKVFEVVEYNTSKYCAYHDVEVKRNPRGVINCPLGHKLHSDLNGALNILKKALGVIVNAVKKPLSFIVDHNRVAPIKGCNPLEHHHHHH”, the “soluble on expression in E. coli” value is recorded as “not soluble”.

“MRHNIKFKSKGTLKIRNTAQISLWKKCSDSMIADQTYLFINRVQDRRFDEESLRILELSLVAMNVKSFLEVRSRLRDFMRSESVVIFGELTGESMVAKLSVLEFFARAFALLGDMESCLAMRYEALNLRQLKSPSCLWLGVSHSEWTKFAVQSMENGFPSIAGKASENALLSLKKDSLIEPKSEDNSDILDAAEKVRRLRDSAASLTSSHSGIFIYIVSSLKFAVCNRLLTTF”: the “soluble on expression in E. coli” value is given as “soluble”.

For “MAHHHHHHMDKAKTLEVLRGMKFMQRKEEAKRRAAFEVAQRDEIERQLLHPGTGSSGASGGVSDGGSSALRDRGGGGPVRATVLYDDSFPTHAYSLSRRSFTETLGGGGAIPVAAGLGDTDAHLEGSAVESRVSLKDVGEAQASADAALDDSDVASDEEVADLWGGEDAEGELNDPTAASDRRNQGVKRTRDRRGDRNQHACSDGRFIVKPSLRAPKLPRRLQETVAEQKRQRAEEEGDMNM”, the “soluble on expression in E. coli” value is given as “soluble”.

“MNCRLGCGACCIAPSISSVIPGMPNGKAAGERCVQLSDDNLCLIFGSPERPAVCCDFEASLDVCGHSNEEALWLITNLESQTS”: the “soluble on expression in E. coli” value was “soluble”.

Regarding “MSLKISLENVGCASQIGKRKENEDRFDFAQLTDEVLYFAVYDGHGGPAAADFCHTHMEKCIMDLLPKEKNLETLLTLAFLEIDKAFSSHARLSADATLLTSGTTATVALLRDGIELVVASVGDSRAILCRKGKPMKLTIDHTPERKDEKERIKKCGGFVAWNSLGQPHVNGRLAMTRSIGDLDLKTSGVIAEPETKRIKLHHADDSFLVLTTDGINFMVNSQEICDFVNQCHDPNEAAHAVTEQAIQYGTEDNSTAVVVPFGAWGKYKNSEINFSFSRSFASSGRWAEGHHHHHH”, the “soluble on expression in E. coli” value is listed as “soluble”.

Take “MEQRDMKTVFLLDRSAKFVENCNETFDVTIREGPKQKKLQFEKTIWTWCLEGIFEMHRILSDVYPRGTLQLRFALADFMGKMLDTQWTDGFLTREELGELIETVSRPSEANTDITPIGGLTMAIEALAVQSPEQRNYNYDVRYSANKRTAQNSEVIRVTRELRGLPPLPTVQNAGNLIMYTRLNTQEEMEQLQTEIVELVVSRNKIADAPSNKTFCPITSLRLFIVNYYATGDECTVKTHSLQAHPDLPLLKIWVISRKAADMCDAIHSLLVDAFDLGSTTVTKIPMKEDNRGSSNYDVELFHSGKVHAMLKENNLIDTVSKKGDSDKGVTYDTMRLTWTTAPKTKWSLFPYHGAAVPCTTAQAYSRPSACLTQFVRDGRCVMLDSEKTTELGMNMHEKLVSHLLIANRGRIFIQEIDFMQKKADRIAGKLKRPRVLHAPEDPINMNQLRHTYKQLELRFVAKNRMDDNLTEKETEKWTGLKNSDLKKRFQRISKNIPCFAADTFIFNEKVTPKLEPLISLITKTTLSENDVDKCKQCIVTLYQMKNERQYVISPESDIKISSVRNLKDPDEQLRVTFVELAKHIMKYVTFSEKHKEIYKTYMTTLNVDKLLEVDLDDDEAVDKMFVKFSFFGKSDTASKTDEDEDSSDDEDEEILKSPALKKLFGYVDARDERKYEELYGQGFKKKKPEVEEKPIVMAKEIKVDIFSNMCDMLEVKESKIRREFVGRETHGNIAPLYPQLAEKLERPASPAATERGTERVRNTAERGGSGTPPPGGRRNFQ”: the “soluble on expression in E. coli” value is recorded as “not soluble”.

Regarding “MTDDNDNKNTELPMSASEVTAGTKIVRRAANQKPSRVVADICVVGSGAAGMSAAIEGARAGRKVVLVDSLPALGGQAVNSIIGTFCGLFSNGSDGYQFTHGIADDLLGDLGAQENALFYRRGPHTTVVYYDEVALGRWVEKAMLAAGVTVIVGAVMRNVRVAGRRVTGIDLSTRYGDVEVEANGFVDASGDAALVWQAGFACREPDDGPIYGTQMLIVENIDESKVPSREELPARMREKAGDYGLLRREGLSFVIPGRGVAAMNMTHVETPLEPLEASRKGIEGKDQADRAFAFLRNEFPACFGKARIRAYGLPGIRQTRWIVGRQQLSVDDVRAGTKFEDAIGRTAWPIELHDHGSGHHWHIFDKDHVHYVPFGSLTPQEAENIVAAGRCIDADKAALSSVRVMGPCMAMGAAAAHALDLAGSGSVHQIDIDALKWRVRDNLERTDLEHHHHHH”, the “soluble on expression in E. coli” value was “not soluble”.

In the case of “MIPGGNTLKETAVVPAATGYDRIAFIYDIIAGIASFDQINKSQLAFLSSIPTQSTCLILGGGTGYFLQKLLEQNATIQVTYVDASQKMIEFAQKRIAEKKPYDAHRVTFVCKQVNVFEFDTYDSIVCNYFLDLFEEADVTMLIKKFKKHLKKDGILYITDFTMPIRTGIIEWSAKAGLKVLYWFFKRTTSLSNNQLPDIESVVLKQDFIKLHSADFFKGILRCSLYR”, the “soluble on expression in E. coli” value is “not soluble”.

Turning to “MGSDKIHHHHHHVTPFAQTAAQTDHYDVIVIGAGPSGSVAASLLHQQGKRVLVLEKQHFPRFSIGESLLPCCMQVIAEANMLDAVNQAGYQFKNGAAFNANGRSTYFDFTDKFTPGPGTTFQVERGDFDKLLADTAASQGVEIRYGQRVDAVDLSHNPRLTISDEQGASYELSADYLLDASGFGRVLPRLLDLERPSNLPSRTAIFTHIQDNIDSVDMGDYHFDRNKILISVHPDNRDIWYWLIPFSNGRCSLGVVGEPHLLGQDADLEATNLEATLIRLVREEPRLKQLLSRAEIIRKPAKLAGYSANVSTLASDKFALLGNAGEFLDPVFSSGVTIAMQSASIAAKCVVKQLNGESVDWQTEYAQPLMRGVDTFRTYVQAWYDGRFQDVIFYQDPNPKIKQMICSILAGYAWDESNPFVAESERRLNMVVELCR”, the “soluble on expression in E. coli” value was “not soluble”.

As for “IARVVVHPDYRADGLGILAVRTAVEWIEERRVPEMRMRKHLVETIAQMARFNPFFEKAGFYYLWDTASGKPVLYKPLSEEAE”, the “soluble on expression in E. coli” value was “not soluble”.

Consider “MIKIGVITMALLSFLNAGWFSLLFGSNPDPISIPIDLSQAGSVVEREVKIEETWAYDLFLEFAVLDRKEDGGLDGKKVRKFLGFNSYNPYDGKKLGFGDYEQAKRKLGDLIDETYDCDGTIAPIKLTIHQINKDNTKKLIVDNLYMTKGYSSGAYERDIAIISLDKGKYIFRIENIEAFQEMNARKVNFIIRIHKRDK”, for which the “soluble on expression in E. coli” value was “not soluble”.

As for “MSLKYVNKVIVILGASFAGMTCAQKLRQLNPNWDIVLIDKEIHPDYVPNGLNWYYRHEISGLNQAMWQTEEEQRLQNIRCLFGLKVEKINKEDRELMLSDGSSVYYDQLICAMGSQAESTYIDGADAQGVLTTKTYATSQNAKQVLDKSHKVAVVGAGIIGLDIAYSLHESGKAVTLLEAQERPDFRHTDPDMSLPLLDAMAESKLHFFQNQKVEKITVTREEKLCLRTLTGDTFTVDAVILAVNFRPDSRLLTGLVDLSVDNSVVVNDYFQTSDPNIYAIGDLIWSYFKGLNSAYYMPLINQAIRSAQMLAYHLSGHAVPKLKITRATGSKHFGYYRANIGLTELEAGFYEDTVSVTYFPKEQYDLRIKLIANQKTGHLLGAQLISKENCLATANQLVQAISCDMTDFDLAFQDFIYTARESEMAYMLHQAAINLYEKRIGEGHHHHHH”, the “soluble on expression in E. coli” value is “soluble”.

Take “MAQKVEAGGGAGGASWDDGVHDGVRKVHVGQGQDGVSSINVVYAKDSQDVEGGEHGKKTLLGFETFEVDADDYIVAVQVTYDNVFGQDSDIITSITFNTFKGKTSPPYGLETQKKFVLKDKNGGKLVGFHGRAGEALYALGAYFATTTTPVTPAKKLSAIGGDEGTAWDDGAYDGVKKVYVGQGQDGISAVKFEYNKGAENIVGGEHGKPTLLGFEEFEIDYPSEYITAVEGTYDKIFGSDGLIITMLRFKTNKQTSAPFGLEAGTAFELKEEGHKIVGFHGKASELLHQFGVHVMPLTN”: the “soluble on expression in E. coli” value was “soluble”.

For “MAEWNRAKRKRKTIEIQYTGLASNSTLKVTKVTGKHLESMGIPGKFGYEVYPEEAVYLMETGSATISTSSGRDLSLLEAFSILEAMSVPMSKYEAYKHVKRTGLVVLRPRKPTIDFERLRHVEPKIRQKFAEKSFEMLVNRHTVPEERVPNPDSFPSFENRNGQISMKMKVLHTSPALVNFLPLEMLESIQTSTILQNLKPPTPNRPPCRPPSYWPFVDHHVTNWQEFRFQAEQARQETVLRRLKKLRPPSHAELRRERITVENVDFHVFSPASFSHRLPARPLFSLICYSATGPPLKISELAELENVVFAMEEAGKVNFVAMSGASIDLNNYLC”, the “soluble on expression in E. coli” value is “not soluble”.
